Test results: PMC5566995, “Development and Characterization of a Camelid Single Domain Antibody–Urease Conjugate That Targets Vascular Endothelial Growth Factor Receptor 2” (Frontiers in Immunology, 2017)

Assays:
[1] = molecular target: T1, VEGFR2 expressed by 293/KDR cells (Homo sapiens (assumed; KDR), UniProt P35968); assay: flow cytometry on cells; 293/KDR cells incubated with conjugate or biotinylated antibody in staining buffer (PBS with Ca2+ and Mg2+, 0.02% NaN3, 2% FBS) at 2-8 C for 1 h; conjugates detected with mouse anti-urease and AF488-anti-mouse IgG, biotinylated antibody with PE-SA; signal as ratio to 293 cells or to a biotin-isotype control; settings: one partner purified
T1 construct: vascular endothelial growth factor receptor 2 (VEGFR2, KDR) expressed on 293/KDR cells; source: 293/KDR cells, on the cell surface

recombinant VEGFR2/Fc = molecular target: T2, recombinant VEGFR2/Fc (Homo sapiens (assumed), UniProt P35968); assay: ELISA; VEGFR/Fc (0.25 ug/mL) captured on plates coated with goat anti-human IgG-Fc; dilutions of antibody-urease conjugate or biotinylated antibody in 0.1% BSA/T-TBS, room temperature, 2 h; conjugates detected with rabbit anti-urease and goat anti-rabbit-AP, biotinylated antibody with streptavidin-alkaline phosphatase; A405; settings: both partners purified
T2 construct: vascular endothelial growth factor receptor 2 (VEGFR2), recombinant Fc fusion protein; Fc fusions of this supplier usually hold the extracellular domain (surmise); also called vascular endothelial growth factor receptor 2 Fc fusion; source: bought: R&D Systems

V21H4-DOS47 = molecular target: T3, V21H4-DOS47 (llama | jack bean (Canavalia ensiformis)); assay: as above; settings: both partners purified
T3 construct: as the chain of m1; residues 1-127 of V21H4; urease, jack bean (Canavalia ensiformis), homohexamer, purified from crude urease; Antibody-urease conjugate; the standard method gives 8.7-9.2; also called V21-DOS47; V21H4-DOS47 (8.8 antibodies/urease); source: conjugate purified by diafiltration; copies: 8.8 + 6

T2 sequence (P35968 20-764): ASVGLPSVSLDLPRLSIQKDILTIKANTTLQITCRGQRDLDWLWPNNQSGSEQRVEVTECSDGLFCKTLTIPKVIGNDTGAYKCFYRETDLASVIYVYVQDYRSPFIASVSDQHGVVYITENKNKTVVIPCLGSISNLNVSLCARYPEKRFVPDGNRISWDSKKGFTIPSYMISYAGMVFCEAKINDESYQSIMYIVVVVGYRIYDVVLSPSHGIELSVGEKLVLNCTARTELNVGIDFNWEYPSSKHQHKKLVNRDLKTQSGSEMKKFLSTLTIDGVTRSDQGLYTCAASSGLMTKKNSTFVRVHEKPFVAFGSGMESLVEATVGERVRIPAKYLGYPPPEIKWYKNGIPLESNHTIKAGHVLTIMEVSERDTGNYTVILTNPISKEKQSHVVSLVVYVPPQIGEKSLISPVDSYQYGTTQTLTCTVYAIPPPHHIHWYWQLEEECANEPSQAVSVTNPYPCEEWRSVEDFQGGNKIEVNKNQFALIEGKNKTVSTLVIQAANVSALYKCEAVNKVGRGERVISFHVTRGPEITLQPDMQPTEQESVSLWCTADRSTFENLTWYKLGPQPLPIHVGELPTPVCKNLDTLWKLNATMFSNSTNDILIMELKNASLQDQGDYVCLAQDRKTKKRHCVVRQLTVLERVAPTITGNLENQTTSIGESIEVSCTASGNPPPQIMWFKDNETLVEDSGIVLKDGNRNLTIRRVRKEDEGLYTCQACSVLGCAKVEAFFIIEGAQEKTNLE
T1 sequence (P35968 20-1356): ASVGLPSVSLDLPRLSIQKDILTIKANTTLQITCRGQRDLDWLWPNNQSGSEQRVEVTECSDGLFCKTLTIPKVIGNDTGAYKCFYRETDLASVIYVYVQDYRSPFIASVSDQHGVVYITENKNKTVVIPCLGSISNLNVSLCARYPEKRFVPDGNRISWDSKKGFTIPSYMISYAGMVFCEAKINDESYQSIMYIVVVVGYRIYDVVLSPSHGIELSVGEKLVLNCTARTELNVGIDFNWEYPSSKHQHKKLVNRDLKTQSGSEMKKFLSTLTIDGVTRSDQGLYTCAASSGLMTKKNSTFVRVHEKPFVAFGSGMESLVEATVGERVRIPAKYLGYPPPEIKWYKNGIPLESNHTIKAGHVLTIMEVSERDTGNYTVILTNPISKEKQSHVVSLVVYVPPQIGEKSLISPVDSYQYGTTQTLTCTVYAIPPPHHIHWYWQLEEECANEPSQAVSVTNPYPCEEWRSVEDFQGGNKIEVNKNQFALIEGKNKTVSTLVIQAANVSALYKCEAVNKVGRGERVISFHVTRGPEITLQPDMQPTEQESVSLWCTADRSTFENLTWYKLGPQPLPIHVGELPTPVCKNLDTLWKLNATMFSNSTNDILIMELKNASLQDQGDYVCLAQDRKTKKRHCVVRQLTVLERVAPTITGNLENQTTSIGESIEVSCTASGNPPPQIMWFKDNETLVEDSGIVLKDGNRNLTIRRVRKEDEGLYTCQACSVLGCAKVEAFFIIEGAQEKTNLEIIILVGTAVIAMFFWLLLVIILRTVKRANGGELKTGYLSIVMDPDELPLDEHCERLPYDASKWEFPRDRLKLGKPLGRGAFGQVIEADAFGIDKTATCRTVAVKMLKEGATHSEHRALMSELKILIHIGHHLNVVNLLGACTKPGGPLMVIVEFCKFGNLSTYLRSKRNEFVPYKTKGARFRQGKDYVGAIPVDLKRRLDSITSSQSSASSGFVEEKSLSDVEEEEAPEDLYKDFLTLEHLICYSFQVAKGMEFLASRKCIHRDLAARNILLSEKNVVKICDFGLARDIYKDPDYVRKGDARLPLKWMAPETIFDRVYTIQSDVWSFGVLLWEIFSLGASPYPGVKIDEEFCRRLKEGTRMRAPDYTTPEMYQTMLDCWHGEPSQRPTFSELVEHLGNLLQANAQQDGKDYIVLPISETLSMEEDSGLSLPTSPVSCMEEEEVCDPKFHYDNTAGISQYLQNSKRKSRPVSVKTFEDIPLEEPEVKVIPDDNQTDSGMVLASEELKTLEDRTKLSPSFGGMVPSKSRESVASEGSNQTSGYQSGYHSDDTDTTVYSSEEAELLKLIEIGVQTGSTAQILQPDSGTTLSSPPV

Binder | EC50 [1] | EC50 (recombinant VEGFR2/Fc) | binding result (V21H4-DOS47)
biotin-V21H4 (VHH, residues 1-127: V21 core (122 residues, ending at S122) and the first of the added C-terminal residues G123-C136; C136 is the added terminal cysteine; 136 residues in all; also called V21H4 antibody; biotinylated V21H4) VHH: QVQLVESGGGLVQAGGSLRLSCAASGRAFSSYAMGWFRQAPGKERELVAAISWSDDSTYYANSVKGRFTISRDNAKSAVYLQMNSLKPEDTAVYYCAAHKSLQRPDEYTYWGQGTQVTVSS | 1.6 nM | 1.8 nM | 
VEGFR1/Fc (Fc fusion, UniProt P17948 27-758, looked up, vascular endothelial growth factor receptor 1 (VEGFR1), recombinant Fc fusion protein; also called recombinant Fc fusion protein of VEGFR1; source: bought: R&D Systems) SKLKDPELSLKGTQHIMQAGQTLHLQCRGEAAHKWSLPEMVSKESERLSITKSACGRNGKQFCSTLTLNTAQANHTGFYSCKYLAVPTSKKKETESAIYIFISDTGRPFVEMYSEIPEIIHMTEGRELVIPCRVTSPNITVTLKKFPLDTLIPDGKRIIWDSRKGFIISNATYKEIGLLTCEATVNGHLYKTNYLTHRQTNTIIDVQISTPRPVKLLRGHTLVLNCTATTPLNTRVQMTWSYPDEKNKRASVRRRIDQSNSHANIFYSVLTIDKMQNKDKGLYTCRVRSGPSFKSVNTSVHIYDKAFITVKHRKQQVLETVAGKRSYRLSMKVKAFPSPEVVWLKDGLPATEKSARYLTRGYSLIIKDVTEEDAGNYTILLSIKQSNVFKNLTATLIVNVKPQIYEKAVSSFPDPALYPLGSRQILTCTAYGIPQPTIKWFWHPCNHNHSEARCDFCSNNEESFILDADSNMGNRIESITQRMAIIEGKNKMASTLVVADSRISGIYICIASNKVGTVGRNISFYITDVPNGFHVNLEKMPTEGEDLKLSCTVNKFLYRDVTWILLRTVNNRTMHYSISKQKMAITKEHSITLNLTIMNVSLQDSGTYACRARNVYTGEEILQKKEITIRDQEAPYLLRNLSDHTVAISSSTTLDCHANGVPEPQITWFKNNHKIQQEPGIILGPGSSTLFIERVTEEDEGVYHCKATNQKGSVESSAYLTVQGTSDKSNLE |  |  | no binding
